Source: patent WO2019096294A1

Target: His-tagged human prothrombin (human) (UniProt P00734)
Assay: binding ELISA; His-tagged human prothrombin coated on plate

Ichorcumab (antibody)
EC50: 0.282 µg/mL
